Source: publication PMC10403255, “Two RNA-binding proteins mediate the sorting of miR223 from mitochondria into exosomes”

What was measured:
Assay in all cases: EMSA; 25 mM Tris pH 8.0, 100 mM KCl, 1.5 mM MgCl2, 0.2 mM EGTA, 0.05% Nonidet P-40, 1 mM DTT, 5% glycerol, 50 ug/ml heparin; 30 C 30 min, then ice 10 min; 1 nM RNA; 6% native PAGE in cold room
YBAP1 = YBAP1 (UniProt Q07021 74-282); settings: protein: recombinant; tags: His6-MBP; chain copies: 3; label: 5'-IRD800CWN
YBX1 [1] = molecular target: T1, YBX1 (UniProt P67809 1-324); settings: protein: recombinant; tags: His6-MBP (N-terminal vector tag); label: 5'-IRD800CWN
T1 sequence (P67809 whole entry): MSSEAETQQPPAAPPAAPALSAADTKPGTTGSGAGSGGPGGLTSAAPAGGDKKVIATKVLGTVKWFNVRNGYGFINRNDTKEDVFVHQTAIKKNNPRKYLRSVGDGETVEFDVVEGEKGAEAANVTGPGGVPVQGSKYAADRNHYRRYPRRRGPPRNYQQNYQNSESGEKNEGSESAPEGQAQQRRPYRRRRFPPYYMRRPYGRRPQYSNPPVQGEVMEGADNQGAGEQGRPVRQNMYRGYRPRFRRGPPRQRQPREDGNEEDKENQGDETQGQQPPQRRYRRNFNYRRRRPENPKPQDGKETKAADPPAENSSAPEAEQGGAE

YBX1 [2] = molecular target: T1, YBX1; settings: protein: recombinant; tags: His6-MBP (N-terminal vector tag); label: 5'-IRD800CWN; remark: listed apart in the source
YBX1 [3] = molecular target: T1, YBX1; settings: protein: recombinant; tags: His6-MBP (N-terminal vector tag); label: 5'-IRD800CWN; remark: listed apart in the source
YBX1(F85A) = YBX1(F85A) (UniProt P67809 1-324, F85A); settings: protein: recombinant; tags: His6-MBP; label: 5'-IRD800CWN
YBX1(F85A), sequence (P67809 whole entry F85A): as the sequence (P67809 whole entry) above, with F85A counted along it

YBAP1, sequence (Q07021 74-282): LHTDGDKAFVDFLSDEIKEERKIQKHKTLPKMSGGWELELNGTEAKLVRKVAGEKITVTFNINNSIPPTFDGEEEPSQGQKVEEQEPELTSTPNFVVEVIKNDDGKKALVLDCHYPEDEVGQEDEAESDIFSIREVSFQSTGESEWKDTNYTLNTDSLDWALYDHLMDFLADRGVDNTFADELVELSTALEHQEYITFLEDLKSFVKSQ

Binder	binding result (YBAP1)	binding signal (YBX1 [1]) [fold weaker than miR223]	binding signal (YBX1 [2])	Kd (YBX1 [3]) [nM]	binding result (YBX1(F85A))
UGAUAUGUUUGAUAUAUUAGGU (ssRNA) [miR190 (hsa-miR-190-5p)]	no binding	~140	–	–	–
UGUCAGUUUUGAUAUAUUAGGU (ssRNA) [miR190sort]	–	–	~8 fold stronger than miR190	–	–
UGUCAGUUUGUCAAAUACCCCA (ssRNA) [miR223 (hsa-miR-223-3p)]	binds	–	–	4.2	no binding
UGAGACAUUGUCAAAUACCCCA (ssRNA) [miR223mut]	–	–	~27 fold weaker than miR223	–	–
